Assay results reported in the supplement of paper PMC10724198.
± gives the standard deviation of the averaged measurements.
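Further: PSI is a weighted mean of sequencing reads over stability bins, variants kept only with over 10 reads, mCherry proximal and sfGFP distal, peptide attached via GGGS linker.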

Each sequence was assayed on Saccharomyces cerevisiae (assay: protein stability index of tFT-peptide fusion (C-terminal peptide) (PSI (0-1 scale)); higher = more stable (slower turnover)). Details: genetic background: wild type; temperature: 30 C.
LPAPARPPLVCS was tested, and the protein stability index was 0.605 ± 0.048.
RKQKRGSKKKKQ showed a protein stability index of 0.721 ± 0.049.
In the case of LWLCLCCSPFFV, the protein stability index is reported as 0.658 ± 0.1.
Work on RGCSAVEKARPC yielded a protein stability index of 0.622 ± 0.0067.
GLYCDDSYPRPH gave a protein stability index of 0.666 ± 0.1.
Work on SFSLAPSPPLLP yielded a protein stability index of 0.721 ± 0.042.
For PSHVFSDCIAPP, the protein stability index was 0.696 ± 0.011.
With KEEYSYQRVGEL the protein stability index was 0.661 ± 0.015.
PPGQRGRRDRAA showed a protein stability index of 0.647 ± 0.015.
AGVASTETREGG showed a protein stability index of 0.685 ± 0.0073.
DVLGCFDYLLFR showed a protein stability index of 0.623 ± 0.03.
For LHRCRPPCSIHL, the protein stability index was 0.816 ± 0.036.
For YCRGGGLAKREV, the protein stability index was 0.689 ± 0.021.
SRVERRRTSREG gave a protein stability index of 0.672 ± 0.083.
Work on GVLWCGYGVGGG yielded a protein stability index of 0.762 ± 0.11.
Work on PSGLVSPSCLGC yielded a protein stability index of 0.68 ± 0.022.
With SSPLWDGLPRLT the protein stability index was 0.736 ± 0.028.
Work on GVPGQFVSENII yielded a protein stability index of 0.679 ± 0.027.
Sequence PPTPPRPPPRTT has a protein stability index of 0.69 ± 0.028.
SERPVPTSISLR showed a protein stability index of 0.682 ± 0.0069.
Sequence TPLNPLYCPPTP has a protein stability index of 0.6384 ± 0.0061.
GAGGGRSERERG was tested, and the protein stability index was 0.593 ± 0.0074.
For VLRPFTPPSSRF, the protein stability index was 0.723 ± 0.047.
For SSFPPPPAAPPP, the protein stability index was 0.667 ± 0.041.
MPLPRQTSAPRP was tested, and the protein stability index was 0.665 ± 0.019.
With PPPSPSTPKTTL the protein stability index was 0.6943 ± 0.0068.
SPCLLTLPVPFL was tested, and the protein stability index was 0.695 ± 0.017.
Sequence SPPPPYPSLFPL has a protein stability index of 0.677 ± 0.034.
For FPFSSFSGRCVD, the protein stability index was 0.6697 ± 0.0042.
For KKKKKKKQIKKK, the protein stability index was 0.747 ± 0.026.
Sequence FLFVVSFGGAVA has a protein stability index of 0.512 ± 0.0061.
In the case of AGLIRDAVILIG, the protein stability index is reported as 0.631 ± 0.021.
VVTFSRSDIVLR showed a protein stability index of 0.694 ± 0.076.
Sequence LSRPPSRPLPLP has a protein stability index of 0.677 ± 0.04.
PPYIMCPFTPGG was tested, and the protein stability index was 0.632 ± 0.024.
In the case of KKKKKKKKNMKR, the protein stability index is reported as 0.683 ± 0.024.
ITRVGSLENSQV gave a protein stability index of 0.635 ± 0.013.
STSWDDLLYHSG was tested, and the protein stability index was 0.716 ± 0.059.
For APPPLPLPPPAP, the protein stability index was 0.705 ± 0.033.
PPPPPRPLPPLP showed a protein stability index of 0.695 ± 0.043.
In the case of NTSPTRLSCPVF, the protein stability index is reported as 0.616 ± 0.11.
KSKRKKKKQTKR gave a protein stability index of 0.653 ± 0.024.
With CLSGVLDFLLFL the protein stability index was 0.648 ± 0.0085.
In the case of GGGGSCWYGNRL, the protein stability index is reported as 0.6353 ± 0.0027.
PNQTRPHPHHNL was tested, and the protein stability index was 0.69 ± 0.02.
VCGYLSIVIWLR gave a protein stability index of 0.423 ± 0.24.
For KRNKKCKKIKKK, the protein stability index was 0.677 ± 0.11.
Work on RGQDGSEGRGPA yielded a protein stability index of 0.653 ± 0.02.
In the case of ASGGGPLGNSSR, the protein stability index is reported as 0.684 ± 0.043.
With HLLLLSLVFFFW the protein stability index was 0.744 ± 0.017.
Sequence GDQTLVSSRQSG has a protein stability index of 0.6603 ± 0.002.
With SCVDHLGCHSSG the protein stability index was 0.739 ± 0.029.
Work on PLPPRSPPRRPS yielded a protein stability index of 0.634 ± 0.079.
Sequence PPSARLPPPPPR has a protein stability index of 0.789 ± 0.12.
TRRAAARAVSAR gave a protein stability index of 0.7 ± 0.066.
LVAHLSTAPPPP gave a protein stability index of 0.675 ± 0.0061.
PRLLPPLGFLTF showed a protein stability index of 0.764 ± 0.075.
SMEVRGLKVRSC gave a protein stability index of 0.617 ± 0.015.
Work on IVTLPTNPYTPV yielded a protein stability index of 0.717 ± 0.046.
In the case of RCGCLRVPTGGG, the protein stability index is reported as 0.679 ± 0.075.
For FLISLPLPAPLP, the protein stability index was 0.679 ± 0.013.
With THKGAPTCRSAR the protein stability index was 0.6723 ± 0.0037.
PRPKNQMAIYRE showed a protein stability index of 0.708 ± 0.07.
PSLHPLSPSPPA was tested, and the protein stability index was 0.686 ± 0.041.
PPPHPLPRPLPT showed a protein stability index of 0.853 ± 0.051.
GPLVGGDGRWVG gave a protein stability index of 0.706 ± 0.011.
With YERPIVAAVRSR the protein stability index was 0.724 ± 0.02.
For SHPLTLPSLLPP, the protein stability index was 0.717 ± 0.045.
Sequence RTRRRQELNHSK has a protein stability index of 0.735 ± 0.2.
With PPRQPLSLLLPL the protein stability index was 0.6468 ± 0.0016.
In the case of SHEARMVCGSSV, the protein stability index is reported as 0.63331 ± 0.00024.
With SPPSPGLDPVCP the protein stability index was 0.66 ± 0.089.
With PPTLPPPRTLPL the protein stability index was 0.6984 ± 0.0052.
GPAPAPPALSSC was tested, and the protein stability index was 0.745 ± 0.0089.
DVAWHNYRISGK gave a protein stability index of 0.673 ± 0.015.
Work on CHYSSFISFVVV yielded a protein stability index of 0.594 ± 0.024.
FLFLTCPFSFSF was tested, and the protein stability index was 0.633 ± 0.018.
In the case of PPRPPPPPAHPP, the protein stability index is reported as 0.557 ± 0.029.
Sequence ELGNREGVGYEV has a protein stability index of 0.781 ± 0.17.
CGHMSTSNANLS showed a protein stability index of 0.687 ± 0.051.
DKDSTSRYSKPW was tested, and the protein stability index was 0.725 ± 0.022.
In the case of GYYVLSIGGVIV, the protein stability index is reported as 0.574 ± 0.0065.
FGCRARYDLVLI was tested, and the protein stability index was 0.641 ± 0.098.
Work on RDSLEKCLFEVQ yielded a protein stability index of 0.703 ± 0.05.
Sequence PPVSPPSPRLPL has a protein stability index of 0.7329 ± 0.0049.
KGRQVDQALVRG was tested, and the protein stability index was 0.634 ± 0.019.
Sequence SSPLPPPHASHP has a protein stability index of 0.7104 ± 0.0043.
With PPHPPPRLPPPP the protein stability index was 0.724 ± 0.043.
VGGLMVYTGDVA showed a protein stability index of 0.704 ± 0.015.
With SPCVPTPSRPAS the protein stability index was 0.685 ± 0.079.
In the case of CKKGCTEVKNAV, the protein stability index is reported as 0.719 ± 0.084.
Sequence KHCFDIEILRYQ has a protein stability index of 0.664 ± 0.016.
With LLSCFGFLRVGA the protein stability index was 0.6076 ± 0.0049.
Sequence LAPPLPMPPPLA has a protein stability index of 0.682 ± 0.02.
With KVSIINAWKEKI the protein stability index was 0.679 ± 0.044.
Sequence LPIARLPPPPPR has a protein stability index of 0.707 ± 0.1.
PSPALGPFLAYR was tested, and the protein stability index was 0.695 ± 0.0077.
In the case of PSPPPSPPSPPS, the protein stability index is reported as 0.708 ± 0.02.
Work on RPPYRRSPPRSP yielded a protein stability index of 0.616 ± 0.019.
GIPYGWLLCFPR was tested, and the protein stability index was 0.813 ± 0.021.
For LPPSTYPASTPS, the protein stability index was 0.674 ± 0.054.
